In general, pKd refers to the negative decadic logarithm of the Kd, by convention in mol/L.

pKd: −log10 of the molar value. Like-named read-outs stand apart in the source and are kept apart here.

Series [1] has as its system T1, VEGF165 (Homo sapiens), P15692-4.
T1 sequence: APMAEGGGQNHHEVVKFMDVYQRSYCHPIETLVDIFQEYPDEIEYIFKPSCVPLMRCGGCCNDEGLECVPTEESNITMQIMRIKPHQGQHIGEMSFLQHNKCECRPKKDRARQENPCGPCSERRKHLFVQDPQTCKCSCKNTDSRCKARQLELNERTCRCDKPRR
Nature of the series: filter. The settings on record: 2'-F pyrimidines, 2'-OH purines, 37 C.

Series [2] relates to VEGF165 (Homo sapiens), P15692-4. The settings on record: 2'-NH2 pyrimidines, 2'-OMe purines; CITED US 5811533; cited from earlier work.

“GGGAGGACGAUGCGGCGGYACUUUGGAAGAAUUGAAUUUCCCGCUCAGACGACUCGCCCGA [VP30.26]”: the pKd in series [1] (single determination) is 11.00.

“GGGAGGACGAUGCGGAYCAACCGAUUGACGUUAUGGGACGCUGGUCAGACGACUCGCCCGA [VP30.5]” gave a pKd in series [1] (single determination) of 11.10.

NX-213: the pKd in series [2] is 9.85.

“GGGAGGACGAUGCGGAGAAUCAGUGAAUGCUUAUAAAUCUCGYGUCAGACGACUCGCCCGA [VT30.3]” showed a pKd in series [1] (single determination) of 11.30.

For “GGGAGGACGAUGCGGUAGGAAGAAUUGGAAGCGCAUUUUCCUCGYCAGACGACUCGCCCGA [VP30.22]”, the pKd in series [1] is 10.70.

Substance “GGGAGGACGAUGCGGYGAACCGAUGGAAUUUUUGGACGCUCGCCUCAGACGACUCGCCCGA [VP30.2]” showed a pKd in series [1] of 11.00.

The record behind these values is patent publication US6051698.
